Measured values: PMC2275084

T1: N519 (Tetrahymena thermophila, UniProt O77448 1-519)
T1 sequence: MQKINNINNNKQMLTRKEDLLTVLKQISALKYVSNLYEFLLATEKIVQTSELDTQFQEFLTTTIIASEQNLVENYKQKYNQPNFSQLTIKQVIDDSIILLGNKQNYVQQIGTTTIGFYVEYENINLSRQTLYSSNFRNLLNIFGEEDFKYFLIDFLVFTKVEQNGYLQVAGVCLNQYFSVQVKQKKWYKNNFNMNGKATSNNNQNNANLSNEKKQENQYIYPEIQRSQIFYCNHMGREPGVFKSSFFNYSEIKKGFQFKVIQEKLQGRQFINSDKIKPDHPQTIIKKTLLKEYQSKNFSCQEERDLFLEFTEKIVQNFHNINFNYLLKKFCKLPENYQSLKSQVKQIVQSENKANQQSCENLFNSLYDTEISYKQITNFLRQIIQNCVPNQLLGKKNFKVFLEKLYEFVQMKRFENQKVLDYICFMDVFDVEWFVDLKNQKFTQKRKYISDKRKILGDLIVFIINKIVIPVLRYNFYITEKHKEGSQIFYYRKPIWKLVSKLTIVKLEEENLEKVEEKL

T2: TEN domain (E. coli) (Tetrahymena thermophila, UniProt O77448 2-191)
T2 sequence: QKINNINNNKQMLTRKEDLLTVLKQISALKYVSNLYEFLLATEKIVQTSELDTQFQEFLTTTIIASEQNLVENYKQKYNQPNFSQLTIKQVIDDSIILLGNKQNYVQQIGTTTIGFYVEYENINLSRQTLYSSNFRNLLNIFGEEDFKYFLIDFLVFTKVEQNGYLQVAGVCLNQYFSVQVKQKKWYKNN

T3: C598 (Tetrahymena thermophila, UniProt O77448 520-1117)
T3 sequence: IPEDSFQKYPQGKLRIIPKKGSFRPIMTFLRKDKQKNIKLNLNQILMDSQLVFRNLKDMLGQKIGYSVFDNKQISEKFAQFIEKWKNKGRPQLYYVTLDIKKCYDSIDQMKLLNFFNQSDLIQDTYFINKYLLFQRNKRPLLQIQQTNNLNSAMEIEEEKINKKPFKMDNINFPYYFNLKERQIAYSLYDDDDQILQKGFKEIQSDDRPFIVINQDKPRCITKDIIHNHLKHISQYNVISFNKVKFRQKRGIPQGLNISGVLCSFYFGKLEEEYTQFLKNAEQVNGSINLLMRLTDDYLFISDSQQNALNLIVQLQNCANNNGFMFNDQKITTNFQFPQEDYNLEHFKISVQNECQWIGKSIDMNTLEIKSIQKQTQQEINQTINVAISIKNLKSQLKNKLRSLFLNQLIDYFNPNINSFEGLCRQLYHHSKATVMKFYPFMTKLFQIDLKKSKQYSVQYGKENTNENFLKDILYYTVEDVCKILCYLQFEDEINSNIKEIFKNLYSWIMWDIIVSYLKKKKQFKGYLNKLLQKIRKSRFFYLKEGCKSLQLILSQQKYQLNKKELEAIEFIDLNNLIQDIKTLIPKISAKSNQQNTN

T4: TERT deltaC233 (Tetrahymena thermophila, UniProt O77448 1-884)
T4 sequence: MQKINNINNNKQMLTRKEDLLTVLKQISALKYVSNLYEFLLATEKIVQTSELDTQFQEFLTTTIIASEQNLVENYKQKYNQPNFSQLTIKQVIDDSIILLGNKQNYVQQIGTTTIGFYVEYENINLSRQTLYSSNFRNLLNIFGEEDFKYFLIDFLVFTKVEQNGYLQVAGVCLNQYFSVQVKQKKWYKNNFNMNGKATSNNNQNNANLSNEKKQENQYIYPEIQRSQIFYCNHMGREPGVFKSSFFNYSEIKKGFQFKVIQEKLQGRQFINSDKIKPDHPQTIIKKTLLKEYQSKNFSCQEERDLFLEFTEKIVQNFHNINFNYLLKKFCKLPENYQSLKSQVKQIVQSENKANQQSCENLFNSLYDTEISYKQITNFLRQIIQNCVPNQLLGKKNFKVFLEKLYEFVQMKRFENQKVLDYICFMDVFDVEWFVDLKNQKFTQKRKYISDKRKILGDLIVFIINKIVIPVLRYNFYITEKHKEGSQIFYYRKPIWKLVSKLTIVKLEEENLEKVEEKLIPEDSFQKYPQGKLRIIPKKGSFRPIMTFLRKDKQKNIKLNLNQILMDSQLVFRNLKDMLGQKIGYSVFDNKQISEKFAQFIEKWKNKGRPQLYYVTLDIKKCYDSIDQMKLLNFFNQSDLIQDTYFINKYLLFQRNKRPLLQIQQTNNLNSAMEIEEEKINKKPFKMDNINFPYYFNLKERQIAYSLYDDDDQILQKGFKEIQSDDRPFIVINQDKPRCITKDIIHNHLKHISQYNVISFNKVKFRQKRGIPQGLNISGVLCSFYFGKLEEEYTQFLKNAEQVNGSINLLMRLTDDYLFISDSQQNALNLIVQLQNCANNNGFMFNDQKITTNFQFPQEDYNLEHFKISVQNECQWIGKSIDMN

T5: TERT deltaTEN (Tetrahymena thermophila, UniProt O77448 192-1117)
T5 sequence: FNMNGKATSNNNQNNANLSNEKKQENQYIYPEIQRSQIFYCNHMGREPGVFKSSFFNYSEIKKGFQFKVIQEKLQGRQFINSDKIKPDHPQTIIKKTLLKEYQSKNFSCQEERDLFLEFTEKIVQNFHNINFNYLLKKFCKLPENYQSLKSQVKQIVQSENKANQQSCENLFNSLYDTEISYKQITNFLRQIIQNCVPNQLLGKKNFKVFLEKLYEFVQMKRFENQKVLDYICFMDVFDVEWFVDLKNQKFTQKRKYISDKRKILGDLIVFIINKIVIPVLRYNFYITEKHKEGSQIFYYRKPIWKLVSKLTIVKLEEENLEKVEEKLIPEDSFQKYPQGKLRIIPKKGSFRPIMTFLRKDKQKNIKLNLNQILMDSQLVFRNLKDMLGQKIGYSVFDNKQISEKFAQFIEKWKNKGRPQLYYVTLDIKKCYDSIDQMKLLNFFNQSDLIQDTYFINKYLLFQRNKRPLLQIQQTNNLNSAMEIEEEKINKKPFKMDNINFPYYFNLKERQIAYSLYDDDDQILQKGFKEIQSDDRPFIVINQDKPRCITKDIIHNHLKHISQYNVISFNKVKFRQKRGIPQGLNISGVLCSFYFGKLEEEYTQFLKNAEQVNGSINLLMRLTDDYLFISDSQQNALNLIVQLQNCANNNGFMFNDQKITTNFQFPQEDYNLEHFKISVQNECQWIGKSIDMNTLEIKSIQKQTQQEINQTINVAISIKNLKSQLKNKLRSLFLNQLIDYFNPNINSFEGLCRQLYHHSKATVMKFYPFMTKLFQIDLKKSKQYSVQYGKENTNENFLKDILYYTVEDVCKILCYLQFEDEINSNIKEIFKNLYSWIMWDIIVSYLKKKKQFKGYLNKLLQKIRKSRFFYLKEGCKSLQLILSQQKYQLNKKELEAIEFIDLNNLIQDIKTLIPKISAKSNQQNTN

T6: TEN domain (in vitro translated) (Tetrahymena thermophila, UniProt O77448 2-191)
T6 sequence: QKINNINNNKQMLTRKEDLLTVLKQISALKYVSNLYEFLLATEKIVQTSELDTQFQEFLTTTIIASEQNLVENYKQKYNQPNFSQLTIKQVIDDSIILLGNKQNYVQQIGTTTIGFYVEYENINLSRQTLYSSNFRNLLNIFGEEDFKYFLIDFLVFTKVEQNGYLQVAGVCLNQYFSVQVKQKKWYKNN


What was measured:
N519 [1] = target: T1, N519; assay: UV crosslinking
TEN domain (E. coli) = target: T2, TEN domain (E. coli); assay: UV crosslinking
C598 = target: T3, C598; assay: UV crosslinking
TERT deltaC233 = target: T4, TERT deltaC233; assay: NeutrAvidin pull-down
N519 [2] = target: T1, N519; assay: NeutrAvidin pull-down
TERT deltaTEN = target: T5, TERT deltaTEN; assay: NeutrAvidin pull-down
[3] = target: T6, TEN domain (in vitro translated); assay: NeutrAvidin pull-down

Binder	binding result (N519 [1])	binding result (TEN domain (E. coli))	binding result (C598)	binding signal (TERT deltaC233)	binding signal (N519 [2])	binding signal (TERT deltaTEN)	binding result [3]
TTGGGGUTGGGGTTGGGGTT (ssDNA, 5-iodo-dU at position 7) [I(7)20GTT]	binds	binds	binds	–	–	–	–
TTGGGGTTGGGGUTGGGGTT (ssDNA, 5-iodo-dU at position 13) [I(13)20GTT]	binds	binds	binds	–	–	–	–
UTGGGGTTGGGGTTGGGGTT (ssDNA, 5-iodo-dU at position 1) [I(1)20GTT]	binds	–	binds	–	–	–	–
TTGGGGTTGGGGTTGGGGUT (ssDNA, 5-iodo-dU at position 19) [I(19)20GTT]	binds	binds	binds	–	–	–	–
GGGGTTGGGGTTGGGGTT (ssDNA, 5' biotin) [Bio-18GTT]	–	–	–	~4 fold higher Kd than full-length TERT	~6 fold lower affinity than full-length TERT	~4 fold higher Kd than full-length TERT	no binding
